B1: LINE1-full (parent)
chain: UACGUAGGUGGUUUUCCCCUGAUAGUGCUAAGGGGGCCUGGAAGUUUGGACUGGGCAGAGCUCAACACAGCGUGGCAAAGUGGCUGUGGCUAGACUGCCUCUCUGGAUUCCUCGUCACUCAGCAGGGCAUCUCUGAGAGAAAUGCC

Variants of: B1
Assay: self-cleavage, relative activity (ratio to wild type); higher = more cleavage; in vitro, sequencing; the parent is a self-cleaving ribozyme
For A129G C146U, the self-cleavage was 1.59.
In the case of C19U, the self-cleavage is reported as 1.21.
Variant U1C A69U has a self-cleavage of 0.04.
Work on U26A U45A yielded a self-cleavage of 0.84.
U26A G93A showed a self-cleavage of 0.
For U15C U26C, the self-cleavage was 1.33.
With A92U U119C the self-cleavage was 0.87.
Variant G27A G53U has a self-cleavage of 1.14.
With U134C A136G the self-cleavage was 1.75.
C37G U47A gave a self-cleavage of 1.11.
C3U A136G gave a self-cleavage of 1.08.
With A64U C113A the self-cleavage was 0.17.
U1C G82A gave a self-cleavage of 1.3.
U12A A59G gave a self-cleavage of 0.27.
Work on U14A U100C yielded a self-cleavage of 0.78.
Work on C28G yielded a self-cleavage of 0.98.
Variant G10A A67G has a self-cleavage of 0.42.
C113U U132C showed a self-cleavage of 0.89.
Variant C19U U62A has a self-cleavage of 0.07.
U52C G58U gave a self-cleavage of 0.04.
Variant A77G C98G has a self-cleavage of 0.21.
Work on U109A U134A yielded a self-cleavage of 0.68.
Variant U47A U52C has a self-cleavage of 1.37.
In the case of C113U G135A, the self-cleavage is reported as 1.18.
In the case of U47C C76U, the self-cleavage is reported as 1.77.
U12C U87A showed a self-cleavage of 0.06.
A69G A124U gave a self-cleavage of 0.
In the case of U47C C84A, the self-cleavage is reported as 0.15.
In the case of C98A U130C, the self-cleavage is reported as 0.13.
For A24U A92U, the self-cleavage was 0.7.
For U1C U62A, the self-cleavage was 0.05.
Variant A69G C145A has a self-cleavage of 0.71.
C18U U26C gave a self-cleavage of 2.16.
For G75A G126A, the self-cleavage was 0.87.
For U13C C56U, the self-cleavage was 0.15.
A78U U143C gave a self-cleavage of 1.31.
With A50G C99U the self-cleavage was 0.43.
In the case of G44U U47C, the self-cleavage is reported as 1.45.
In the case of A43G A79C, the self-cleavage is reported as 2.63.
Work on A79U yielded a self-cleavage of 1.85.
C28A A42G showed a self-cleavage of 0.82.
With U87C the self-cleavage was 0.22.
In the case of A65U A78U, the self-cleavage is reported as 0.2.
U96G U119A showed a self-cleavage of 0.03.
U5G A121G showed a self-cleavage of 0.84.
C76U A92G gave a self-cleavage of 0.06.
With C17U U104C the self-cleavage was 1.33.
In the case of G33A C56U, the self-cleavage is reported as 0.35.
A42G A64G gave a self-cleavage of 0.28.
With U52G A64G the self-cleavage was 0.32.
Variant U5A G53A has a self-cleavage of 0.79.
With A65G U109G the self-cleavage was 0.23.
Variant U85A U108A has a self-cleavage of 0.17.
Work on G44A U143C yielded a self-cleavage of 1.48.
C28U A92U gave a self-cleavage of 0.43.
For U109C A140G, the self-cleavage was 0.48.
A79G U134G gave a self-cleavage of 0.57.
Work on A57G G114A yielded a self-cleavage of 0.84.
In the case of U26A A50G, the self-cleavage is reported as 0.92.
Work on U12C A94G yielded a self-cleavage of 0.37.
Variant G33A U96C has a self-cleavage of 0.12.
Work on A65G G88A yielded a self-cleavage of 0.02.
A2G G34C gave a self-cleavage of 0.75.
Work on A22G C76U yielded a self-cleavage of 1.39.
For C38U U46A, the self-cleavage was 1.28.
U15A A138G showed a self-cleavage of 1.45.
In the case of U1C U47C, the self-cleavage is reported as 0.97.
For A69U U85C, the self-cleavage was 0.
Variant A43C G105U has a self-cleavage of 1.53.
With G35U A140G the self-cleavage was 1.21.
With A92U A107U the self-cleavage was 0.89.
Variant U73A A142U has a self-cleavage of 1.41.
Variant U62C G114A has a self-cleavage of 0.05.
For U62A A79U, the self-cleavage was 0.03.
For U109A G139A, the self-cleavage was 1.49.
U96C U102A gave a self-cleavage of 0.11.
With A77U A121G the self-cleavage was 1.6.
For A50G U115C, the self-cleavage was 1.42.
With A22G G36A the self-cleavage was 1.36.
With G34C A107G the self-cleavage was 1.12.
Work on U47C U112C yielded a self-cleavage of 2.
Work on G82A A94G yielded a self-cleavage of 0.26.
For A67U U85A, the self-cleavage was 0.05.
G34C U47A showed a self-cleavage of 0.64.

Source: the RNAGym collection of RNA variant scans (doi:10.7554/elife.90254)
